From the RNAGym collection of RNA variant scans (doi:10.1073/pnas.2313332121)

B1: TPR t1 (parent)
chain: GACCAAUCUGCCCUCAGAGCUCGAGAACAUCUUCGGAUGCAGAGGAGGCAGGCUUCGGUGGCGCGAUAGCGCCAACGUCCUCAACCUCCAAUGCAUCCCACCACAUGAUGAUGCCUGAAGAGCCUUGGUUUUUUG

Variants of: B1
Experiment: polymerase ribozyme fitness, log enrichment relative to wild type (log ratio); higher = more active; in vitro selection for triplet polymerase activity
Procedure, shortened: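 Genotype fitness is the logarithm of its enrichment divided by wild-type enrichment, using inverse-variance-weighted averages of replicates. That logarithm is base 2. Enrichment was measured by Illumina sequencing of input and output libraries from one triplicate in vitro selection round, with frozen incubation at −7 °C, on PCR-built, transcribed mutant libraries of each subunit of a heterodimeric triplet polymerase ribozyme, retaining genotypes with ≥10 input reads and ≥1 read per output.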

In order of rising “polymerase ribozyme fitness (log ratio)” value:
1. GACCAAUCUGCCCUCAGAGCUCGAGAACAUCGUCGGAUGCAGAGGAGGAAGGCUUCGGUGGCGCGAUAGUGCCGACGUCCUCGACCUCCAAUCCAUCCCACCACAUGAUGAUGACUGAAGAGCCGUGGUUUUUUG  -7.4
2. GACCAAUCUGCCCUCAGAGCUCGAGAACAUCCUCGGAUGCAGAGGAGGCAGGCUUCGGUGACGCGAGAGCGCCAACGUCCUUAACCUCCAAUGCAUCCCACCACAUGAUGAUGCCUGAAGAGCCUUGGUUUUUUG  -7.29
3. GACCAAUCUGCCCUCAGAGCUCGAGAACAUCGUCGGAUGCAGAGGAGGCAGGCUUCGGUGGCGCGAUUGCGCCAACGUCAUCAACCUCCAAUGCAUCCCAUCACAUGAUGUUGCCUGAAGAGCCUGGGUUUUUUG  -6.67
4. GACCAAUCUGCCCUCAGAGCUCGAGAACAUCGUCGGUUGCAGAGGAGGCAGGCUUCGGUGGCGCGAUAGCGCUAACGUCCUCAACCUCCAAUGCAUCCCACCACAUGAUGAUACCUGAAGAGCCUUGGUUUUUUG  -6.09
5. GACCAAUCUGCCCUCAGAGCUCGAGAACAUCGUCGGAUGCAGAGGAGGCAGGCUUCGGUGGCGCGAUAGCGCCAACGUCCUCAACCUCCAAUGCAUCCCACCACAUGAUGAUGCCUGAGGAGCCUUGGUUUUUUG  -5.95
6. GACCAAUCUGCCCUCAGAGCUCGAGAACAUCCACGGAUGCAGAGGAGGCAGGCUUCGGUGGCGCGAUAGCGCCAACGUCCUCAACCUCCAAUGCAUCCCACCAAAUGAGGAUGUCUGAAGUCCCUUGGUUUUUUG  -5.8
7. GACCAAUCUGCCCUCAGAGCUCGAGAACAUCCUCGGAUGCAGAGGAGGCAGGCUUCGGUGGCGCGAUACCGCCAACGUCUUCAACCUCCAAUGCAUCCCAUUACAUGAUGAUGCCUGAAGAGCCUUGGUUUUUUG  -5.78
8. GACCAAUCUGCCCUCAGAGCUCGAGAACAUCCUCGGAUGCAGAGGAGACAGUCUUCGGUGGCGCGUUAGCGCCAACGUCCUCAACCUCCAAUGCAUCCCACCACAUGAUGAUGACUGAAGAGCCUUGGUUUUUUG  -5.75
9. GACCAAUCUGCCCUCAGAGCUCGAGAACAUCCUCGGAUGCAGAGGAGGCAGUCUUCGGUGGCGCGAUAGCGCCAACUUACUCAACCUCCGAUGCAUCCCACCACAUGAUGAUGCUUGAAGAGCCUAGGUUUUUUG  -5.37
10. GACCAAUCUGCCCUCAGAGCUCGAGAACAUCCUCGGAUGCAGAGGAGGCAGGCUUCGGUAGCGCGAUAGCGCCAACGUCCUCAACCUCCAAUGCAUACCACCACAUGAUGAUGCCUGAAGAGCUUUGGUUAUUUG  -4.71
11. GACCAAUCUGCCCUCAGAGCUCGAGAACAUCCUCGGAUGCAGAGGAUUCAGGCUUCGGUGGCGCGAUAGCGCCAAUGUCCUCAACCUCCAAUGCAUCCCACCACAUGAUGAGGCCUGAAGAGCCUUGGUUUUUUG  -4.6
12. GACCAAUCUGCCCUCAGAGCUCGAGAACAUCCUCGGAUGCAGAGGAGGCAGGCUUCGGUGGCACGAUAGCGCCUACGUCCUCAACCUCCAAUGCAUCCCACCACAUGAUGAUGCCUGAAGAGCCUUGGUUUUUUG  -3.86
13. GACCAAUCUGCCCUCAGAGCUCGAGAACAUCCUCGGAUGCAGAUGAGGCAGGCUUCGGUGGCGCGAUAGCGCCAACGUCCUCAACCUCCAAGGCAUCCCACCACAUGAUGAUGCCUGUAGAGCCUUGGUUUUAUG  -3.79
14. GACCAAUCUGCCCUCAGAGCUCGAGAACAUCCUCGGAUGCAGAGGAGGCAGGCUUCGGUGUCGCGAUAGCGCCAACGUCCUCAAGCUCCAAUGCAUCCCACCACAUGAUGAUGCCUGAAGAGCCUUGGUUUUUUG  -3.56
15. GACCAAUCUGCCCUCAGAGCUCGAGAACAUCCUCGGAUGCAGAGGAGGCAGGCCUCGGUGGCGCGAUAGCCCCAACGUCCUCAACCUCCAAUGCCUCCCACCACAUGAUGAUGCCUGAAGAGCCUUGGUUUUUUG  -3.01
16. GACCAAUCUGCCCUCAGAGCUCGAGAACAUCCUCGGAUGCAGAGGAGGCAGGCUUCGGUGGCGCGAUAGCGCCAACGUCCUCAACCUCCAAUGCAUCCCACCACAUGAUGAUUCCUGAAGAGCCUUGGUUUUUUG  -2.9
17. GACCAAUCUGCCCUCAGAGCUCGAGAACAUCCUCGGAUGCAGAGGAGGCAGGCUUCGGUCGCGCGAUAGCGCCACCGUGCUCAACCUCCAAUGCAUCCCACCACAUGAUGAUGCCUGUAGAGCCUUGGUUUUUUG  -1.88
18. GACCAAUCUGCCCUCAGAGCUCGAGAACAUCCUCGGAUGCAGAGGAGGCAGGCUUCGGUGGCGCGAUAGCACUAACGUCCUCAACCUCCAAUGCAUCCCACCACAUGAUGAUGCCUGAAGAGCCUUGGUUUUUUG  -1.78
19. GACCAAUCUGCCCUCAGAGCUCGAGAACAUCCUCGGAUGCAGAGGAGGCAGGCUUCGGUGGCGCGAUAGCUCCAACGUCCUCAACCUCCAAUGCAUCCCACCACAUGAUGAUGCCUGAAGAGCCUUGGUUUUUUG  -1.13
20. GACCAAUCUGCCCUCAGAGCUCGAGAACAUCCUCGGAUGCAGAGGAGGCAGGCUUCGGUGGCCCGAUAGCGCCAACGUCCUCAACCUCCAAUGCAUCCCACCACAUGAUGAUGCCUGAAGAGCCUUGGUUUUUUG  -0.346
21. GACCAAUCUGCCCUCAGAGCUCGAGAACAUCCUCGGAUGCAGAGGAGGCAGGCUUCGGUGGCGCGAUAGCGCCAACGUCCUCAACCUCCAAUGCAUCCCACCACAUGAUGAAGCCUGAAGAGCCUUGGUUUUUUG  1.49
